Source: US12692310B2, “ASIC1 channel antagonist antibody” (ShanghaiTech University, priority 2019, dated 2026)

T1: hASIC1a-eYFP (human, UniProt P78348 1-528)
T1 construct: whole, on cells; On CHO-K1 cells, stably (6H7) or transiently transfected; also called full-length hASIC1a (1-528 amino acids) fused with eYFP; CHO-K1/hASIC1a cells; not shown: C-terminal eYFP fusion
T1 sequence (looked up): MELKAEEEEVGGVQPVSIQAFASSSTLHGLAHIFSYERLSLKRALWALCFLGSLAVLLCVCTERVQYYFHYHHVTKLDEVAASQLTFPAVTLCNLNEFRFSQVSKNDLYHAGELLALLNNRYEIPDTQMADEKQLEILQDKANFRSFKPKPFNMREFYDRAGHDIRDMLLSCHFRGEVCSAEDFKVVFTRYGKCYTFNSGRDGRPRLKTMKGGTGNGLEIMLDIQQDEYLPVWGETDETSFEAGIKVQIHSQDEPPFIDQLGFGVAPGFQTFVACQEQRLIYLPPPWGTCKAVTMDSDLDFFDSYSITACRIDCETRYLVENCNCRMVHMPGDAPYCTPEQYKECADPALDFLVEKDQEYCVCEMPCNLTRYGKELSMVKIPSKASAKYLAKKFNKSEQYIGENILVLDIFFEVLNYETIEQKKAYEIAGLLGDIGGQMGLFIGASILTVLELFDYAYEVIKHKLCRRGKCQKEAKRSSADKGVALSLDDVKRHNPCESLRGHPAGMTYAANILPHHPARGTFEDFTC

T2: hASIC1a-eYFP on CHO-K1 cells (Homo sapiens, UniProt P78348)
T2 construct: overexpress the full-length hASIC1a (1-528 amino acids) protein fused with eYFP; expressed in transfected cells; host or cells: CHO-K1, transient
T2 sequence (P78348 1-528): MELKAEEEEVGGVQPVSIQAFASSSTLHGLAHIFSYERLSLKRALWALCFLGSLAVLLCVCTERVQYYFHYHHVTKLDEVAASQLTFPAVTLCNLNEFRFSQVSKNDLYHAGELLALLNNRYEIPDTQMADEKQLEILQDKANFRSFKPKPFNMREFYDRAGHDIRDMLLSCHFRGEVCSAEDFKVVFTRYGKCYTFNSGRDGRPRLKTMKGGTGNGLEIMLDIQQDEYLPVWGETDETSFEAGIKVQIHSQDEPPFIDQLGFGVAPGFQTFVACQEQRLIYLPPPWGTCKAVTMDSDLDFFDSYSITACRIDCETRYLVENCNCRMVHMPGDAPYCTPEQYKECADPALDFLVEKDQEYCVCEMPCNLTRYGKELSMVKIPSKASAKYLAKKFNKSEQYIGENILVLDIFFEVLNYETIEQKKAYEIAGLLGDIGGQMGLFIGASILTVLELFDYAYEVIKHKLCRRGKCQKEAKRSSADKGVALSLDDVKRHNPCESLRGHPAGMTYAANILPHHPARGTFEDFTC


Columns and labels:
[1] = biological target: truncated hASIC1a (amino acids 13-464) (human) (UniProt P78348); assay: Octet, scFv format, ΔhASIC1a nanodiscs
[2] = biological target: truncated hASIC1a (amino acids 13-464) (human) (UniProt P78348); assay: Octet, scFv format at 500 nM, ΔhASIC1a nanodiscs
[3] = biological target: T1, hASIC1a-eYFP; assay: immunocytochemistry, confocal microscopy, CHO-K1 cells expressing hASIC1a-eYFP
[4] = biological target: T3, ΔhASIC1a-nanodiscs (Homo sapiens, UniProt P78348); assay: Binding affinities of scFv antibodies to ΔhASIC1a-nanodiscs, Octet system; settings: scFv format; for Response: Conc. 500 nM; for Response / Kd: Octet system; for affinities for ΔhASIC1a nanodiscs, comparison in words: among ASC01-ASC06
T3 construct: A truncated ASIC1a (amino acids 13-464; ΔhASIC1a) was overexpressed and purified; made in house; host or cells: HEK293F (BacMam baculovirus)
Source text: Nanodisc Assembly of hASIC1a Channel. To mimic the lipid bilayer environment of cellular membranes, the purified ΔhASIC1a protein was incorporated into a lipid nanodisc by mixing the ΔhASIC1a protein with the membrane scaffold protein (MSP). and 1,2-dimyristoyl-sn-glycero-3-phosphocholine (DMPC) at a molar ratio of 3:2:65. The associated detergents were removed by gentle agitation with the Bio-Beads SM2 [Bio-Beads:DDM=10:1 (wt/wt); Bio-Rad]overnight. The ΔhASIC1a-embedded nanodiscs were separated from the unassembled nanodisc using the Flag peptide-specific magnetic beads. D'Antona et al., Biochemistry 53:127-134 (2014). The desired ΔhASIC1a nanodisc assembly was further purified and collected using a Superose 6 column (GE Healthcare) in a buffer containing 20 mM Tris, pH 7.5, and 150 mM NaCl. The empty nanodiscs were packaged without the addition of ΔhASIC1a. The composition of the assembled ΔhASIC1a nanodiscs was analyzed by SDS-PAGE, EM, and dynamic light scattering (FIGS. 9A-C, 12A, 12B)
The binding ability of ASC01-ASC06 antibodies in scFv format to ΔhASIC1a-nanodiscs, in comparison to the empty nanodiscs, was evaluated using ELISA. […] Affinities of the antibodies were then measured.

[5] = biological target: T2, hASIC1a-eYFP on CHO-K1 cells; assay: Immunocytochemistry on CHO-K1/hASIC1a cells; type: cell-based; settings: ICC, confocal; for localization to plasma membranes of cells expressing hASIC1a-eYFP: compared to ASC01 and ASC05
Protocol: Cell Membrane Colocalization Studies Using Immunocytochemistry (ICC). Cells (CHO-K1) were seeded onto the poly-D-lysine-coated glass bottom 24-well plates at a concentration of 2×10^5 cells per mL. After 12 h of cultivation, the CHO-K1 cells were transfected with ASIC plasmids by Lipofectin 3000 reagent. Twenty-four hours after transfection, the cells were fixed in 4% paraformaldehyde and incubated for 30 min in a blocking solution (5% goat serum in PBS). The resulting cells were incubated with […] ASC06-IgG1 at 4° C. overnight followed by three PBS washes for 5 min each and incubation with the Alexa555-conjugated goat anti-human secondary antibody (Life Technology). After three additional PBS washes for 5 min each, the nuclei of the cells were stained with DAPI (#10236276001; Roche). The ICC analysis was performed on a laser scanning confocal microscopy (ZEISS LSM710) with a 63×N.A. 1.4 objective at 25° C. Images were collected on a 1,024×1,024-pixel EM-CCD camera. Data acquisition and analyses were performed with the ZEN 2012 professional software.
To understand whether ASC01-ASC06 specifically bind to the ASIC1a protein expressed on cell surface, the binding of the antibodies to CHO-K1/hASIC1a cells was evaluated using immunocytochemistry. The CHO-K1/hASIC1a cells overexpress the full-length hASIC1a (1-528 amino acids) protein fused with eYFP. […] It is likely that ASC01-ASC05 recognize specific ASIC1a confirmations or subpopulations.
The ASC06 antibody was converted into a full length IgG1 form (ASC06-IgG1) for further study. […] The binding of ASC06-IgG1 to CHO-K1/hASIC1a cells was evaluated using immunocytochemistry, in comparison with the ASC06 (scFv format) antibody.

T3 sequence (P02647 68-267 partner limits assumed, one chain of several): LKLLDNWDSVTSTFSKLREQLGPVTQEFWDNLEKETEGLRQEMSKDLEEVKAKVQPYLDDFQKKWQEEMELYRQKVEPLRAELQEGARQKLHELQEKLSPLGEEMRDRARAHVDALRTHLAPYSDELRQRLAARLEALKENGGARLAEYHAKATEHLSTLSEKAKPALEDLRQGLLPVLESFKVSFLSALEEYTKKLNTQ

Kd [1]	Response [2]	binding result [3]	Response [4]	Kd [4]	affinities for ΔhASIC1a nanodiscs, comparison in words [4]	localization to plasma membranes of cells expressing hASIC1a-eYFP [5]	membrane co-localization with hASIC1a [5]	Molecule
45.1 nM	0.431	binds						ASC01 (scFv, V domains shown, also called ASC01 scFv; ASC01 (scFv format)) VH: QVQLVETGPRLVKPSQTLSLTCTVSGGSINSGGYYWGWIRQHSGKGLEWIGYIYPRGSSYYNPSLRSRVTISADTSRNNFSLKLTSVTAADTAVYYCARVGYTGAFDIWGQGTLVTVSS VL: QAVLTQPSSVSAAPGQKVTISCSGGNSNIGNNYVSWYQQLPGTAPKLLIYDNNKRPSGIPDRFSGSKSGTAATLGITGLQTGDEADYYCGTWDSSLSAGVFGEGTQLTVLG
137 nM	0.502	binds						ASC05 (scFv, V domains shown, also called ASC05 scFv; ASC05 (scFv format)) VH: QVQLVESGAEVKKPGASVRVSCKASGYSFTNYYMHWVRQAPGQGLEWMGIISPSGRSTSFAQKFQGRVTMTRDTSTSTVYMHLSSLRSDDTAVYYCARGAWSTDAFDIWGQGTTVTVSS VL: QSALTQPASVSGSPGQSITISCTGTSSDVGSYNLVSWYQQHPGKAPKLMIYEGSKRPSGVSNRFSGSKSGNTASLTISGLQAEDEAEYHCSSFTGKGYVFGTGTKLTVLG
			0.5712	21.7 nM	strongest affinities	localized more to the plasma membranes	more co-localization with hASIC1a-eYFP	ASC06: anti-ASIC1a scFv antibody, VH SEQ ID NO: 52 and VL SEQ ID NO: 57 (antibody, V domains shown, scFv linker; Amino acid sequence of ASC06 VH; Amino acid sequence of ASC06 VL) VH: QVQLQQSGGGLVQPGGSLRLSCAASGFTFSSYAMSWVRQAPGKGLEWVSAISGSGGSTYYADSVKGRFTISRDNSKNTLYLQMNSLRAEDTAVYYCAKDSFYGYSKGDWGQGTLVTVSS VL: QSALTQPASVSGSPGQSITISCTGTSSDVGAYNYVSWYQQQPGKAPKLMIYGVSNRPSGVSNRFSGSKSGNAASLTISGLQAEDEADYYCSSYTSSSTYVFGTGTKLTVLG

Second part, the molecule before the results:

Molecule	Kd [1]	Response [2]	binding result [3]	Response [4]	Kd [4]	affinities for ΔhASIC1a nanodiscs, comparison in words [4]	localization to plasma membranes of cells expressing hASIC1a-eYFP [5]	membrane co-localization with hASIC1a [5]
ASC06 (scFv, V domains shown) VH: QVQLQQSGGGLVQPGGSLRLSCAASGFTFSSYAMSWVRQAPGKGLEWVSAISGSGGSTYYADSVKGRFTISRDNSKNTLYLQMNSLRAEDTAVYYCAKDSFYGYSKGDWGQGTLVTVSS VL: QSALTQPASVSGSPGQSITISCTGTSSDVGAYNYVSWYQQQPGKAPKLMIYGVSNRPSGVSNRFSGSKSGNAASLTISGLQAEDEADYYCSSYTSSSTYVFGTGTKLTVLG	21.7 nM	0.571						
ASC04: anti-ASIC1a scFv antibody, VH SEQ ID NO: 32 and VL SEQ ID NO: 37 (antibody, V domains shown, scFv linker; Amino acid sequence of ASC04 VH; Amino acid sequence of ASC04 VL) VH: QVQLVQSGAEVKKPGSSVKVSCKASGGTFSTYAINWVRQAPGQGLEWMGWMNPNSGNTGYAQKFQGRVTMTRNTSISTAYMELSSLRSEDTAVYYCARYSYGMDVWGQGTTVTVSS VL: QAVLTQPSSLSASPGASVSLTCTLRSGINVGAYRIYWYQQKPGSPPQFLLRYKSDSDKQQGSGVPSRFSGSRDASANAGILLISGLRSEDEADYYCAIWHSSAWVFGGGTKLTVLG				0.995	20.8 nM	strongest affinities	localized more to the plasma membranes	
ASC02: anti-ASIC1a scFv antibody, VH SEQ ID NO: 12 and VL SEQ ID NO: 17 (antibody, V domains shown, scFv linker; Amino acid sequence of ASC02 VH; Amino acid sequence of ASC02 VL) VH: QVQLVQSGAEVKKPGASMKVSCTTSGYTVTGYYIHWLRQAPGQGFEWMGWINPNLGVTNYAQKFQGRVSMTRDPSIKTAYLELSGLRSDDTAMYYCARASTGGIFYDYWGQGTLVTVSS VL: NFMLTQPHSMSESPGKTVTISCTRSSGNIASNYVQWYQQRPGSSPTTVIYDDNQRPSGVPDRFSGSIDSISNSASLTISGLKTEDEADYYCQSYDSSSVIFGGGTKLTVLG				0.2888	262 nM		localized more to the plasma membranes	
ASC03: anti-ASIC1a scFv antibody, VH SEQ ID NO: 22 and VL SEQ ID NO: 27 (antibody, V domains shown, scFv linker; Amino acid sequence of ASC03 VH; Amino acid sequence of ASC03 VL) VH: QVQLVESGAEVKKPGSSVKVSCKASGGNFRKYSISWVRQAPGQGLEWMGWISAYNGNTNYAQKLQGRVTMTTDTSTSTAYMELRSLRSDDTAVYYCARDFDPYYDAFDIWGQGTTVTVSS VL: QSALTQPASVSGSPGQSITISCTGTSSDVGAYNYVSWYQQHPGKAPKLMIYDVSNRLSGVSNRFSGSKSGNRASLTISGLQAEDEADYYCSSYRSGNSLAFGGGTKLTVLG				0.2693	259 nM		localized more to the plasma membranes	
ASC01: anti-ASIC1a scFv antibody, VH SEQ ID NO: 2 and VL SEQ ID NO: 7 (antibody, V domains shown, scFv linker; Amino acid sequence of ASC01 VH; Amino acid sequence of ASC01 VL) VH: QVQLVETGPRLVKPSQTLSLTCTVSGGSINSGGYYWGWIRQHSGKGLEWIGYIYPRGSSYYNPSLRSRVTISADTSRNNFSLKLTSVTAADTAVYYCARVGYTGAFDIWGQGTLVTVSS VL: QAVLTQPSSVSAAPGQKVTISCSGGNSNIGNNYVSWYQQLPGTAPKLLIYDNNKRPSGIPDRFSGSKSGTAATLGITGLQTGDEADYYCGTWDSSLSAGVFGEGTQLTVLG				0.431	45.1 nM			
ASC05: anti-ASIC1a scFv antibody, VH SEQ ID NO: 42 and VL SEQ ID NO: 47 (antibody, V domains shown, scFv linker; Amino acid sequence of ASC05 VH; Amino acid sequence of ASC05 VL) VH: QVQLVESGAEVKKPGASVRVSCKASGYSFTNYYMHWVRQAPGQGLEWMGIISPSGRSTSFAQKFQGRVTMTRDTSTSTVYMHLSSLRSDDTAVYYCARGAWSTDAFDIWGQGTTVTVSS VL: QSALTQPASVSGSPGQSITISCTGTSSDVGSYNLVSWYQQHPGKAPKLMIYEGSKRPSGVSNRFSGSKSGNTASLTISGLQAEDEAEYHCSSFTGKGYVFGTGTKLTVLGGLG				0.5016	137 nM			
